Numbering of substitutions follows the chain as printed. In names and notes the source's numbering stands. Where two headings read alike, the source gives them in different places.
Columns and labels:
[1] = target: T1, cynomolgus SIRPα on cells (cynomolgus, UniProt P78324 31-373 (human entry)); test: flow cytometry, cyno SIRPα-CHO cells, anti-human IgG-AF647 detection
T1 construct: also called cyno SIRPα-CHO; Cyno SIRPα-CHO-K1; not shown: Transmembrane and cytoplasmic region of cynomolgus SIRPα
T1 chain: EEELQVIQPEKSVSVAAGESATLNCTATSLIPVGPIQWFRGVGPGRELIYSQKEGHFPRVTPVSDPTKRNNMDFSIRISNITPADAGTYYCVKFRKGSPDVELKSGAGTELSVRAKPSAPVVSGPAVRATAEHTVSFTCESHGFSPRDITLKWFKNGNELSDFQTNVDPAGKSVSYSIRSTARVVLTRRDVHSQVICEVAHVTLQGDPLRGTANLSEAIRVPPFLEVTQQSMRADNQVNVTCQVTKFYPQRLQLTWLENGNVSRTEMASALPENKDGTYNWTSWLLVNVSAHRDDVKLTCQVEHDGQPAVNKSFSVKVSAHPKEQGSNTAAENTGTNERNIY

[2] = target: T2, extracellular domain of SIRPα v1-DLN (e.g. SIRPα1) (human, UniProt P78324 31-373); test: SPR Biacore T200, antibody on Protein A chip, 1:1 Langmuir fit; comparative Biacore study of Table 30, a separate experiment from Table 15
T2 construct: also called hSIRPα - ECD (v1)

[3] = target: T3, SIRPβ extracellular domain (human, UniProt O00241 30-371); test: SPR Biacore T200, antibody captured on Protein A chip
T3 construct: also called hSIRPβ - ECD
T3 chain: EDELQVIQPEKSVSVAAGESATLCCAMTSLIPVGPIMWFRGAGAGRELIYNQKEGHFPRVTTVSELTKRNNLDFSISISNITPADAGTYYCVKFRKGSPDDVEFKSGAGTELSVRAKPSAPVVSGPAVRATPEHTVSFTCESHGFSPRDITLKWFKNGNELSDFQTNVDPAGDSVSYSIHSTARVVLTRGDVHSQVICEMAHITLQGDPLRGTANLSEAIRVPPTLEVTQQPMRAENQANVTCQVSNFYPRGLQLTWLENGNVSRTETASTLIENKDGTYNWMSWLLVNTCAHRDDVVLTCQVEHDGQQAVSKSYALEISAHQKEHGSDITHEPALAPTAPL

[4] = target: T2, extracellular domain of SIRPα v1-DLN …; test: as above
[5] = target: T4, SIRPγ extracellular domain (human, UniProt Q9P1W8 29-360); test: as above
T4 construct: also called hSIRPγ - ECD

[6] = target: T5, FcγR2B (human, UniProt P31994 43-310); test: cell binding, FcγR-engineered HEK293 cells
T5 construct: whole, on cells
T5 sequence (looked up): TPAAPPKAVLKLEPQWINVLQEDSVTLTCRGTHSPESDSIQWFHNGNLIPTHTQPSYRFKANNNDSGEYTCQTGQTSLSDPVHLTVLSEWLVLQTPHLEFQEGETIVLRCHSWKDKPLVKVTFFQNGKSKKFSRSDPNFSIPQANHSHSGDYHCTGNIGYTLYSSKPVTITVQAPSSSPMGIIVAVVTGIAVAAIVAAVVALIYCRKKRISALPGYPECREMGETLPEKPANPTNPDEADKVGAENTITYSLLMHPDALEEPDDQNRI

[7] = target: T6, FcγR1 (CD64) (human, UniProt P12314 16-374); test: cell binding, FcγR-engineered HEK293 cells
T6 construct: whole, on cells

[8] = target: T7, FcγR3A (CD16aV158) (human, UniProt P08637 17-254); test: cell binding, FcγR-engineered HEK293 cells
T7 construct: whole, on cells

[9] = target: T5, FcγR2B; test: cell binding, FcγR-engineered HEK293 cells; remark: listed apart in the source
[10] = target: T8, FcγR3A (CD16aF158) (human, UniProt P08637 17-254); test: cell binding, FcγR-engineered HEK293 cells
T8 construct: whole, on cells

[11] = target: T9, FcγR2A (CD32aR131) (human, UniProt P12318 34-317); test: cell binding, FcγR-engineered HEK293 cells
T9 construct: whole, on cells
T9 sequence (looked up): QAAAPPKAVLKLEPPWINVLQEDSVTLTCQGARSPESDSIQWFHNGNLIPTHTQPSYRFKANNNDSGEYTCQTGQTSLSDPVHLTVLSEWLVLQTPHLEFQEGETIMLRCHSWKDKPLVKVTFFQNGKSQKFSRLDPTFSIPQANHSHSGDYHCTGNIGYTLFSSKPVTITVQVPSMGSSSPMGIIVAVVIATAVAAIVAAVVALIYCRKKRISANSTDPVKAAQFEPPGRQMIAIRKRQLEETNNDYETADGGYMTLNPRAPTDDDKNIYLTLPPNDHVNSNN

[12] = target: T10, FcγR2A (CD32aH131) (human, UniProt P12318 34-317); test: cell binding, FcγR-engineered HEK293 cells
T10 construct: whole, on cells
T10 sequence (looked up): T9 sequence (looked up) with R134H

[13] = target: T6, FcγR1 (CD64); test: cell binding, FcγR-engineered HEK293 cells; remark: listed apart in the source
[14] = target: T7, FcγR3A (CD16aV158); test: cell binding, FcγR-engineered HEK293 cells; remark: listed apart in the source
[15] = target: T11, recombinant SIRPα protein (Novoprotein, catalog number C385) (human, UniProt P78324 31-370); test: SPR Biacore T200 competition in solution, SIRPα 20 nM, competitor immobilized CD47-ECD
T11 construct: also called human recombinant SIRPα protein; SIRPα antigen

- EC50 [1]: 1.9 nM
- Kd [2]: 0.0923 nM
- Kd [3]: 12.1 nM
- koff [3]: 0.000614 s⁻¹
- kon [3]: 50600 M⁻¹ s⁻¹
- Kd [4]: 0.0152 nM
- koff [4]: 0.000118 s⁻¹
- kon [4]: 7.75e+06 M⁻¹ s⁻¹
- Kd [5]: 0.0101 nM
- koff [5]: 0.000188 s⁻¹
- kon [5]: 1.71e+07 M⁻¹ s⁻¹
- EC50 [6]: 2710 nM
- EC50 [7]: 0.79 nM
- EC50 [8]: 142 nM
- EC50 [9]: 2480 nM
- EC50 [10]: 1200 nM
- EC50 [11]: 194 nM
- EC50 [12]: 200 nM
- EC50 [13]: 0.79 nM
- EC50 [14]: 795 nM
- IC50 [15]: 12.6 nM
B1: SIRPAB-11-K322A (antibody, human IgG1, kappa)
light: DIQMTQSPSSVSASVGDRVTITCRASQGISSWLAWYQQKPGKAPKLLIYAASNLQSGVPSRFSGSGSGTDFTLTISSLQPEDFATYYCQQGASFPITFGGGTKVEIKRTVAAPSVFIFPPSDEQLKSGTASVVCLLNNFYPREAKVQWKVDNALQSGNSQESVTEQDSKDSTYSLSSTLTLSKADYEKHKVYACEVTHQGLSSPVTKSFNRGEC
heavy: not shown
notes: human IgG1 with K322A (EU numbering); also called SIRPAB-11-IgG1-K322A; SIRPAB-11-K322A-AlexaFluor647

Reference: patent US20200102387A1 (CELGENE, published 2020)
